Experimental data as given in PMC6733452.

B1: unnamed (parent)
chain 1: MFGLGHNSKEISMSHIGTKFILAEKFTFDPLSNTLIDKEDSEEIIRLGSNESRILWLLAQRPNEVISRNDLHDFVWREQGFEVDDSSLTQAISTLRKMLKDSTKSPQYVKTVPKRGYQLIARVETVEEEMARESEAAHDISQPESVNEYAESSSVPSSATVVNTPQPANVVTNKSAPNLGNRLLILIAVLLPLAVLLLTNPSQTSFKPLTVVDGVAVNMPNNHPDLSNWLPSIELCVKKYNEKHTGGLKPIEVIATGGQNNQLTLNYIHSPEVSGENITLRIVANPNDAIKVCE
chain 2: MGYVRVIYQFPDNLWWNECTNQVYYAQDPMKPERLIGTPSIIQTKLLKILCEYHPAPCPNDQIIKALWPHGFISSESLTQAIKRTRDFLNDEHKTLIENVKLQGYRINIIQVIVSENVVDEADCSQKKSVKERIKIEWGKINVVPYLVFSALYVALLPVIWWSYGQWYQHELAGITHDLRDLARLPGITIQKLSEQKLTFAIDQHQCSVNYEQKTLECTKN

Variants of: B1
Settings: with partner chain of the complex shown; parent: 100; read off a plot

| Variant | percent of parent (% capture relative to wild-type ToxR) |
| --- | --- |
| chain 1 S102A T103A Q107A V112A | 63 |
| chain 1 S102A | 84 |
| chain 1 Q107A | 92 |
| chain 1 K114A | 110 |
| chain 1 I120A | 90 |
